Laboratory results from article PMC9190012, “Heparin activation of protein Z-dependent protease inhibitor (ZPI) allosterically blocks protein Z activation through an extended heparin-binding site” (The Journal of Biological Chemistry, 2022).
Where a chain is given by its changes, count along the chain named. Numbers in names are those of the source. One block for each molecule: values may come before it.

Legend:
Type in all cases: biochemical
FXa [1] = molecular target: T1, FXa (Homo sapiens, UniProt P00742); test: Unaccelerated ZPI–FXa reactions: kinetics and stoichiometry of inhibition; conditions: for ka,app: absence of PZ, 2.5 mM CaCl2, pH 7.4, 25 °C
T1 construct: purchased Enzyme Research Laboratories
T1 sequence (P00742 235-488 limits assumed): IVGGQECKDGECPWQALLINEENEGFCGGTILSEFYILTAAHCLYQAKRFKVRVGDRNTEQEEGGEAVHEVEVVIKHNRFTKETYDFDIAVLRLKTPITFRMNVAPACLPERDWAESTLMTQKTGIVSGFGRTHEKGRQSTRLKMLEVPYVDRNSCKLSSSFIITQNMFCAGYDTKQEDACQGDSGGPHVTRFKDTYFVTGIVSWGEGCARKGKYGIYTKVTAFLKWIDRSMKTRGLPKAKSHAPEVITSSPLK
T1 sequence (P00742 41-179 limits assumed): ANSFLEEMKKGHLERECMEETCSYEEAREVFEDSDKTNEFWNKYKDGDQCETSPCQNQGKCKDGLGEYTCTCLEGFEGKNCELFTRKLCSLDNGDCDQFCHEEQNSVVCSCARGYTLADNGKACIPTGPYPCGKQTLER
Experimental: (§1) Apparent second-order rate constants for unaccelerated and H50-accelerated ZPI–FXa reactions were measured in the absence and presence of the optimal H50 concentration under pseudo–first-order conditions by analyzing full ZPI–FXa reaction progress curves over the ZPI concentration range of 10 to 900 nM with ∼0.5 nM FXa. Full reaction progress curves were also measured for ZPI–FXa reactions in the presence of PZ equimolar with ZPI, 25 μM lipid, and 5 mM CaCl2, as a function of the ZPI concentration in the range of 10 to 40 nM. Identical reaction mixtures were quenched at varying reaction times with substrate, and the time course of protease inactivation was measured from the decrease in initial rates of substrate hydrolysis. The first-order rate of decrease in protease activity with time was computer fit by a single exponential decay function with a nonzero end point and kobs obtained from the fitted exponential decay constant. Apparent second-order association rate constants (ka,app) were obtained from the slopes of linear plots of kobs versus the ZPI concentration according to the equation, kobs=kd+ka,app × [ZPI]0
(§2) In which kd represents the rate constant for ZPI–FXa complex dissociation and [ZPI]o is the total ZPI concentration. kd was fixed at the experimentally determined value of 10^−4 s^−1 for WT and ZPI mutants as described ([18]).
(§3) Fixed concentrations of FXa (50–100 nM FXa) were reacted with increasing concentrations of ZPI, ranging from a approximately threefold to sevenfold molar excess, in the absence of cofactors or in the presence of either 1 μM H50 or PZ equimolar with ZPI, 25 μM lipid, and 5 mM CaCl2, in kinetics buffer at 25 °C in reaction volumes of 50 μl. After allowing sufficient time to reach a reaction end point, based on measured second-order associate rate constants (∼5–30 min), remaining proteolytic activity was measured by reacting an aliquot (5–20 μl) of the reaction mixtures with 1 ml of 100 μM Spectrozyme fXa (American Diagnostica) containing 50 μg/ml Polybrene and 5 mM EDTA and monitoring the rate of absorbance change at 405 nm. The apparent SI was determined from the fitted abscissa intercept of a linear plot of residual protease activity against the molar ratio of inhibitor to protease ([18]). Because the ZPI–PZ complex dissociates to a small extent over the reaction time, apparent SIs depend on the time of incubation. To correct for such complex dissociation, apparent SIs were multiplied by the factor, exp (−kd × t), where kd is the measured complex dissociation rate constant of 10^−4 s^−1 and t the fixed reaction time. Simulations verified the validity of this correction for small extents of dissociation. Reported SIs are average values of at least two independent measurements at different reaction times.

FXa [2] = molecular target: T1, FXa; test: PZ-accelerated ZPI–FXa reactions: kinetics and stoichiometry of inhibition; conditions: for SI / ka,app × SI / ka,app × SI relative to WT: PZ-accelerated; for ka,app: equimolar PZ, 25 μM phospholipid, 5 mM CaCl2, pH 7.4, 25 °C; for PZ enhancement: ratio of PZ-accelerated to unaccelerated ka,app × SI
Experimental: as §1, §2, §3

FXa [3] = molecular target: T1, FXa; test: H50 heparin-accelerated ZPI–FXa reactions: kinetics and stoichiometry of inhibition; conditions: for SI / ka,app × SI / ka,app × SI relative to WT: 1 μM H50; for ka,app: 1 μM H50, 2.5 mM CaCl2, pH 7.4, 25 °C; for H50 rate enhancement: ratio of heparin-accelerated to unaccelerated ka,app × SI
Experimental: Heparin accelerating effects on the kinetics of ZPI–FXa reactions were evaluated as a function of heparin concentration under pseudo–first-order conditions (i.e., with a large molar excess of inhibitor over protease) by incubating reaction mixtures of 100 μl containing 70 nM ZPI and ∼0.5 nM FXa in the absence or presence of varying levels of H50 ranging from 10^−9 to 10^−4 M in 20 mM Tris buffer (pH 7.4), 0.1 M NaCl, 0.1% PEG 8000, 0.1 mg/ml BSA, and 2.5 mM CaCl2 at 25 °C for reaction times of 2 to 5 min. Reactions were quenched by adding 1 ml of 50 μM Pefafluor FXa substrate (Centerchem, Inc) containing 50 μg/ml polybrene and 5 mM EDTA. The initial linear rate of substrate hydrolysis was monitored at an excitation wavelength of 380 nm and an emission wavelength of 440 nm. The observed pseudo–first-order rate constant for reactions (kobs) was calculated from the equation, kobs=In([vo-v∞]/[vt-v∞])/t
where vt and v∞ are the initial velocities of protease hydrolysis of the substrate after reaction with ZPI for the fixed reaction time and after reaching the reaction end point, respectively, vo is the velocity measured in control reactions without ZPI, and t is the fixed reaction time. The dependence of kobs on heparin concentration was computer fit by nonlinear least squares analysis by the ternary complex bridging model equation ([10]).
as §1, §2
as §3, with “Simulations verified the validity of this correction for small extents of dissociation. Reported SIs are average values of at least two independent measurements at different reaction times.” left out

SI (FXa [1]): 2.9 ± 0.3 moles ZPI/mole FXa | ka,app × SI (FXa [1]): 7.5 ± 0.9 × 10^3 M^−1 s^−1 | ka,app × SI relative to WT (FXa [1]): (0.47) | ka,app (FXa [1]): 2.6 ± 0.1 × 10^3 M^−1 s^−1 | SI (FXa [2]): 4.5 ± 0.2 moles ZPI/mole FXa | ka,app × SI (FXa [2]): 1.8 ± 0.1 × 10^7 M^−1 s^−1 | ka,app × SI relative to WT (FXa [2]): (0.41) | ka,app (FXa [2]): 3.9 ± 0.1 × 10^6 M^−1 s^−1 | PZ enhancement (FXa [2]): 2400 | SI (FXa [3]): 2.9 ± 0.4 moles ZPI/mole FXa | ka,app × SI (FXa [3]): 4.9 ± 0.7 × 10^4 M^−1 s^−1 | ka,app × SI relative to WT (FXa [3]): (0.04) | ka,app (FXa [3]): 1.7 ± 0.1 × 10^4 M^−1 s^−1 | H50 rate enhancement (FXa [3]): 6.5 fold
B1: K260A/R263A/R305A/K308A/R310A: ZPI helix H site quintuple mutant (protein, UniProt Q9UK55 22-444, looked up, variant K260A R263A R305A K308A R310A)
Protein Z-dependent protease …: LAPSPQSPETPAPQNQTSRVVQAPKEEEEDEQEASEEKASEEEKAWLMASRQQLAKETSNFGFSLLRKISMRHDGNMVFSPFGMSLAMTGLMLGATGPTETQIKRGLHLQALKPTKPGLLPSLFKGLRETLSRNLELGLTQGSFAFIHKDFDVKETFFNLSKRYFDTECVPMNFRNASQAKRLMNHYINKETRGKIPKLFDEINPETKLILVDYILFKGKWLTPFDPVFTEVDTFHLDKYKTIKVPMMYGAGKFASTFDANFACHVLKLPYQGNATMLVVLMEKMGDHLALEDYLTTDLVETWLANMATANMEVFFPKFKLDQKYEMHELLRQMGIRRIFSPFADLSELSATGRNLQVSRVLQRTVIEVDERGTEAVAGILSEITAYSMPPVIKVDRPFHFMIYEETSGMLLFLGRVVNPTLL

SI (FXa [1]): 3.4 ± 0.4 moles ZPI/mole FXa | ka,app × SI (FXa [1]): 9.4 ± 1.6 × 10^3 M^−1 s^−1 | ka,app × SI relative to WT (FXa [1]): (0.59) | ka,app (FXa [1]): 2.8 ± 0.1 × 10^3 M^−1 s^−1 | SI (FXa [2]): 7.7 ± 0.1 moles ZPI/mole FXa | ka,app × SI (FXa [2]): 8.5 ± 0.9 × 10^6 M^−1 s^−1 | ka,app × SI relative to WT (FXa [2]): (0.19) | ka,app (FXa [2]): 1.1 ± 0.1 × 10^6 M^−1 s^−1 | PZ enhancement (FXa [2]): 904 | SI (FXa [3]): 7.8 ± 2.0 moles ZPI/mole FXa | ka,app × SI (FXa [3]): 6.6 ± 2.7 × 10^4 M^−1 s^−1 | ka,app × SI relative to WT (FXa [3]): (0.06) | ka,app (FXa [3]): 8.5 ± 1.3 × 10^3 M^−1 s^−1 | H50 rate enhancement (FXa [3]): 7.0 fold
B2: K104A/R105A/K113A/K116A/K125A/R128A: ZPI mutant of the six basic residues in the helix C/D site (protein, UniProt Q9UK55 22-444, looked up, variant K104A R105A K113A K116A K125A R128A)
Protein Z-dependent protease …: LAPSPQSPETPAPQNQTSRVVQAPKEEEEDEQEASEEKASEEEKAWLMASRQQLAKETSNFGFSLLRKISMRHDGNMVFSPFGMSLAMTGLMLGATGPTETQIAAGLHLQALAPTAPGLLPSLFAGLAETLSRNLELGLTQGSFAFIHKDFDVKETFFNLSKRYFDTECVPMNFRNASQAKRLMNHYINKETRGKIPKLFDEINPETKLILVDYILFKGKWLTPFDPVFTEVDTFHLDKYKTIKVPMMYGAGKFASTFDKNFRCHVLKLPYQGNATMLVVLMEKMGDHLALEDYLTTDLVETWLRNMKTRNMEVFFPKFKLDQKYEMHELLRQMGIRRIFSPFADLSELSATGRNLQVSRVLQRTVIEVDERGTEAVAGILSEITAYSMPPVIKVDRPFHFMIYEETSGMLLFLGRVVNPTLL

SI (FXa [1]): 2.3 ± 0.2 moles ZPI/mole FXa | ka,app × SI (FXa [1]): 1.2 ± 0.2 × 10^4 M^−1 s^−1 | ka,app × SI relative to WT (FXa [1]): (0.75) | ka,app (FXa [1]): 5.0 ± 0.3 × 10^3 M^−1 s^−1 | SI (FXa [2]): 3.3 ± 0.1 moles ZPI/mole FXa | ka,app × SI (FXa [2]): 2.0 ± 0.1 × 10^7 M^−1 s^−1 | ka,app × SI relative to WT (FXa [2]): (0.45) | ka,app (FXa [2]): 6.2 ± 0.1 × 10^6 M^−1 s^−1 | PZ enhancement (FXa [2]): 1733 | SI (FXa [3]): 2.4 ± 0.1 moles ZPI/mole FXa | ka,app × SI (FXa [3]): 9.2 ± 0.9 × 10^5 M^−1 s^−1 | ka,app × SI relative to WT (FXa [3]): (0.77) | ka,app (FXa [3]): 3.9 ± 0.2 × 10^5 M^−1 s^−1
B3: K284A: ZPI helix H site mutant (protein, UniProt Q9UK55 22-444, looked up, variant K284A)
Protein Z-dependent protease …: B1 Protein Z-dependent protease … with A260K, A263R, K284A, A305R, A308K, A310R
